# Results reported in article PMC7755780, “Tetrachloroethene respiration in Sulfurospirillum species is regulated by a two‐component system as unraveled by comparative genomics, transcriptomics, and regulator binding studies”.
# T1: RR2 (PceP), OmpR-family response regulator of TCS2 (Sulfurospirillum halorespirans (DSM 13726?)) (UniProt A0A1D7TJV3)
# T1 sequence: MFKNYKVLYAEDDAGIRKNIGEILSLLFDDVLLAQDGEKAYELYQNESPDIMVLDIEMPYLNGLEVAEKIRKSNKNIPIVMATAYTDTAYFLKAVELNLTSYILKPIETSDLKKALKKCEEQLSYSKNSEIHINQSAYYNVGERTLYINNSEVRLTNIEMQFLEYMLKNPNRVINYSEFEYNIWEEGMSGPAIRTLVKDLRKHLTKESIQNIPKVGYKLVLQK
# T2: RR2 (PceP), OmpR-family response regulator of TCS2 (Sulfurospirillum halorespirans, UniProt A0A1D7TJV3 1-223)
# T2 sequence: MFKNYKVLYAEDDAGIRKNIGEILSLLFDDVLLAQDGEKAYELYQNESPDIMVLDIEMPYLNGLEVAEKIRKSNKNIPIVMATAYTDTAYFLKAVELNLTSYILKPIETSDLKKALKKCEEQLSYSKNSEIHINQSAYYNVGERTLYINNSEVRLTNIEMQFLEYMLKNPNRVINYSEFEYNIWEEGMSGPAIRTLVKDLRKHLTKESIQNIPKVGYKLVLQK
# Biological target: T1, RR2 (PceP), OmpR-family response regulator of TCS2 (Sulfurospirillum halorespirans (DSM 13726?))
# Test: EMSA
# Settings: EMSA: 10 mM HEPES pH 7.6, 2 mM MgCl2, 200 mM KCl, 0.1 mM EDTA, 5 mM DTT, 10% glycerol, 50 ug/ul Ficoll 70, 250 ng poly(dI/dC), 2.5 pmol DNA in 15 ul, room …
row,Molecule,binding
1,ATTGTCTGATATATTGACAAAATCTTTATAAAATCTCCAAAAATATAAAAAAAGAAAAGTATTTACTTATTACTTCGTAAATATTATTAACTTTCATTATTTTAAAATTAAAATCTATATCTTTCCTATAACAAAGCTATAACTTTTGTATATCATTCTTAAAATGTGAAATTAATTCATAAACACATTAAAAAATAAATAACTGTACTTGGGGTTATTTATAAAAGGTTACAAGAAGGTTTGAATACCACTGTGTAAGTTGTTACTCTTGGTATTTTTTAAGGAGGAAGTATG (double strand) [ppceAB promoter],binds
2,CATATTCTATCCTTATTTTTAAAATATTTAATTATTATAAATGTAAGTATAGAAAATAATTATAGGTTGTTTGTAGATAATAATAATTTTTCTACTAATTCTTTAATCATTAAATAATATTCAGTAGTATTTCTATCTATCTCGATGCTCAAAAAAACACCATCAATTCTATCAATATCTACATCTATAACTTTTTCTTAA (double strand) [p1494 (ahpD-like gene promoter)],binds more weakly
3,CATGTGTGAACCTATCCTATAGTTTATAACTATGATTCTATCAGATATTTTGTTAAAAATTAACTTAAAAGAGTAAAAATTATCTATTTAATAGTTACCCTATATTTCACCTATAAGTTACCTATAAATATTCATAAAATTCAAGGTTCTCTCTTTATTGCACACAAAGTTACTACAAGTTTTATGTACT (double strand) [pTCS2/SHALO_1504 intergenic region (pTCS2)],binds
4,CATTAAATTCTTAATTACATCATTATATCACAAAAAAGGCAAGGAATGATAAAAAAGTTTTATCATCTAAGTGAAGTATTAGACAATATCATATAATTAAATAGTTAAAGTAGTATAAATAAACCGTAAAATATGCAAATAACTGCATTTATAAGCTAATATTAATAAAATATACAA (double strand) [p1552 promoter (phage CI repressor superfamily gene)],no binding
5,CTGCATAGAGTATTGTATAAGAAGCGAGCATGTTAAATCCCTGAAATTTTATGAATAATGTACGTATTATAAAAAAAGAAATATAGAACTTGTAGATAAAAAATATTTTCCTTCTATTTTAGTTATACAACGGTTGCATAAGTTTTAAATACAATTTTCATAATAAGTCAGATGTTAAATGGTTGTACTTGGGATCATTTAATTAAAGGTTACAAGAAGGTTTAAAATCATTATCATGATTGTATGGTAGATGATTTTTTAAGGAGTAAATATG (double strand) [prdhAB promoter],binds more weakly
6,TCTATCAGATATTTTGTTAAAAATTAACTTAAAAGAGTAAAAATTATCTATTTAATAGTTACCCTATATTTCACCTATAAGTTAC (double strand) [pTCS2/SHALO_1504 f9 (lacks repeat closest to SHALO_1504 TSS)],no binding
7,TTCACCTATAAGTTACCTATAAATATTCATAAAATTCAAGGTTCTCTCTTTATTGCACACAAAGTTACTACAAGTTTTATGTACT (double strand) [pTCS2/SHALO_1504 f2 (first CCTATA incomplete)],binds more weakly

# Biological target: T2, RR2 (PceP), OmpR-family response …
# Test: EMSA; minimum binding fragment; 30 or 60 pmol RR2; EMSA: 10 mM HEPES pH 7.6, 2 mM MgCl2, 200 mM KCl, 0.1 mM EDTA, 5 mM DTT, 10% glycerol, 50 ug/ul Ficoll 70, 250 ng poly(dI/dC), 2.5 pmol DNA in 15 ul, room temperature 20 min; gel with 30% triethylene glycol in 1x TAE
# Settings: protein: recombinant; tags: Twin-Strep; chain copies: 2; label: 6-FAM; blunt
row,Molecule,binding result
1,ppceAB minimum 70-bp fragment (dsDNA) DNA 1: ATTATTTTAAAATTAAAATCTATATCTTTCCTATAACAAAGCTATAACTTTTGTATATCATTCTTAAAAT DNA 2: ATTTTAAGAATGATATACAAAAGTTATAGCTTTGTTATAGGAAAGATATAGATTTTAATTTTAAAATAAT,binds
